± gives the uncertainty stated by the source.
Experiment: self-splicing fitness, log relative to wild type (ln ratio); higher = more splicing; Tetrahymena group I intron in knt gene, E. coli kanamycin selection, DiMSum; sequences stand for … in CUCUCU…GGAGGGAAAAGUUAUCAGGCAUGCACCUGGUAGCUAGUCUUUAAACCAAUAGAUUGCAUCGGUUUAAAAGGCAAGACCGUCAAAUUGCGGGAAAGGGGUCAACAGCCGUUCAGUACCAAGUCUCAGGGGAAACUUUGAGAUGGCCUUGCAAAGGGUAUGGUAAUAAGCUGACGGACAUGGUCCUAACCACGCAGCCAAGUCCUAAGUCAACAGAUCUUCUGUUGAUAUGGAUGCAGUUCACAGACUAAAUGUCGGUCGGGGAAGAUGUAUUCUUCUCAUAAGAUAUAGUCGGACCUCUCCUUAAUGGGAGCUAGCGGAUGAAGUGAUGCAACACUGGAGCCGCUGGGAACUAAUUUGUAUGCGAAAGUAUAUUGAUUAGUUUUGGAGUACUCGUGGUCG
Summary of the method: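 Fitness was computed with DiMSum as the error-weighted combination of replicate fold changes, kanamycin versus none, each normalised to wild type. The library randomised all eight intron nucleotides of the P1ex region, with the intron placed in the knt kanamycin-resistance gene on pET-22b(+) in E. coli BL21(DE3). Six replicate transformations were grown overnight at 37°C or 30°C on LB agar with or without 25 μg/mL kanamycin, plus 100 μg/mL carbenicillin, 50 μM IPTG and 0.2% rhamnose. Pooled colonies were amplicon-sequenced on an Illumina HiSeq 2500.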

| Sequence | self-splicing fitness (ln) (30 °C) | self-splicing fitness (ln) (37 °C) |
| --- | --- | --- |
| GUUAAGCAAUAUUACGUGCA | -1.44 ± 0.1 | -0.144 ± 0.11 |
| GUUAAGCAAUAUUACGUGUU | -3.27 ± 0.14 | -1.11 ± 0.1 |
| GUUAAGCAAUAUUACGUUGA | -3.87 ± 0.33 | -1.43 ± 0.25 |
| GUUAAGCAAUAUUACGUUUC | -1.75 ± 0.21 | -1.29 ± 0.18 |
| GUUCAGCAAUAUUACGAAUA | -1.01 ± 0.12 | -0.181 ± 0.1 |
| GUUCAGCAAUAUUACGAGAC | -1.99 ± 0.4 | -0.261 ± 0.22 |
| GUUCAGCAAUAUUACGAGAG | -0.895 ± 0.12 | -0.725 ± 0.12 |
| GUUCAGCAAUAUUACGAUAA | -0.196 ± 0.084 | 0.169 ± 0.097 |
| GUUCAGCAAUAUUACGCAAA | -0.717 ± 0.17 | -0.625 ± 0.18 |
| GUUCAGCAAUAUUACGCACA | 1.48 ± 0.34 | -1.71 ± 0.49 |
| GUUCAGCAAUAUUACGCCCG | -1.59 ± 0.22 | -0.196 ± 0.28 |
| GUUCAGCAAUAUUACGCCUG | -1.97 ± 0.2 | -0.936 ± 0.22 |
| GUUCAGCAAUAUUACGCCUU | -0.418 ± 0.083 | 0.046 ± 0.082 |
| GUUCAGCAAUAUUACGCGCU | -2.34 ± 0.18 | -1.13 ± 0.13 |
| GUUCAGCAAUAUUACGCGGA | -4.19 ± 0.42 | -2.54 ± 0.23 |
| GUUCAGCAAUAUUACGCGUC | -1.41 ± 0.071 | -0.257 ± 0.078 |
| GUUCAGCAAUAUUACGGUAC | -2.69 ± 0.19 | 0.0172 ± 0.14 |
| GUUCAGCAAUAUUACGGUUG | -1.9 ± 0.089 | -0.591 ± 0.1 |
| GUUCAGCAAUAUUACGUACG | -1.32 ± 0.1 | -0.0258 ± 0.11 |
| GUUCAGCAAUAUUACGUAGC | -0.047 ± 0.087 | -0.0432 ± 0.11 |

| Sequence | self-splicing fitness (ln) (30 °C) | self-splicing fitness (ln) (37 °C) |
| --- | --- | --- |
| GUUCAGCAAUAUUACGUCAU | -0.56 ± 0.083 | -0.0298 ± 0.09 |
| GUUCAGCAAUAUUACGUCGG | -3.7 ± 0.21 | -2.39 ± 0.23 |
| GUUCAGCAAUAUUACGUGCG | -1.45 ± 0.068 | -0.215 ± 0.093 |
| GUUCAGCAAUAUUACGUUAG | -1.3 ± 0.077 | -0.731 ± 0.11 |
| GUUGAGCAAUAUUACGAAGA | – | -2.71 ± 0.48 |
| GUUGAGCAAUAUUACGAGUA | – | -1.41 ± 0.39 |
| GUUGAGCAAUAUUACGAUCC | -0.364 ± 0.16 | 0.0175 ± 0.28 |
| GUUGAGCAAUAUUACGAUCG | -1.18 ± 0.39 | – |
| GUUGAGCAAUAUUACGCCCA | -1.93 ± 0.45 | -1.74 ± 0.38 |
| GUUGAGCAAUAUUACGCCCG | -2.7 ± 0.49 | – |
| GUUGAGCAAUAUUACGCCUA | -1.73 ± 0.26 | -1.92 ± 0.3 |
| GUUGAGCAAUAUUACGCCUC | -2.09 ± 0.39 | – |
| GUUGAGCAAUAUUACGCGGG | -3.17 ± 0.15 | -2.51 ± 0.26 |
| GUUGAGCAAUAUUACGCGUA | -3.48 ± 0.47 | -0.589 ± 0.18 |
| GUUGAGCAAUAUUACGCUAA | -2.15 ± 0.27 | -2.26 ± 0.26 |
| GUUGAGCAAUAUUACGGCAU | -1.32 ± 0.12 | -0.928 ± 0.17 |
| GUUGAGCAAUAUUACGGCCC | -1.28 ± 0.19 | -0.757 ± 0.29 |
| GUUGAGCAAUAUUACGGCGG | – | -2.66 ± 0.36 |
| GUUGAGCAAUAUUACGGCUC | -2.04 ± 0.31 | -1.38 ± 0.31 |

Reference: the supplement of paper PMC7877785
